According to US20050048579A1, “Tertiary structures of ICAM-1/LFA-1 modulators” (priority 2003, published 2005):
Bridge positions count the residues as written; N and C are the ends. Ends that are not written are not given here. Peptide text beside a SMILES is read from it.

What follows are molecules tested against T1, Intercellular adhesion molecule-1 (ICAM-1) on JY cells (UniProt P05362 28-532, limits assumed) (assay: cell-based or functional assay). Details: not given.
T1 sequence (P05362 28-532 limits assumed): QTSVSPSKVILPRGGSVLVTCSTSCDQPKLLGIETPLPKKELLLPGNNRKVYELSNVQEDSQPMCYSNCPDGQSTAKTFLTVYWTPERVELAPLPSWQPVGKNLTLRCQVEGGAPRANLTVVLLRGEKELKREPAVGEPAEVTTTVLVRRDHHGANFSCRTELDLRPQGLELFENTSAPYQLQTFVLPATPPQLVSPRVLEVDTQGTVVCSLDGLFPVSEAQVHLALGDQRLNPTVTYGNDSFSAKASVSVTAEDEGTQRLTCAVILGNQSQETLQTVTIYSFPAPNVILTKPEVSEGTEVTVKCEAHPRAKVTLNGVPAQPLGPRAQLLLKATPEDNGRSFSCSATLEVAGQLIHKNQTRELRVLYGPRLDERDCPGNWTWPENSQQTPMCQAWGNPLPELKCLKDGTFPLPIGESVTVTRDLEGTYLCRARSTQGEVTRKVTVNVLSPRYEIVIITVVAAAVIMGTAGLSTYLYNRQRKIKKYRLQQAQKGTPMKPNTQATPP

IC50, inhibition of JY cell aggregation at 2 hours [µM] | Molecule
> 1000 | CLLRARSIC (disulfide 1-9) [IP01-A5]
> 1000 | CALRMRSIC (disulfide 1-9) [IP01-A2]
> 1000 | CLARMRSIC (disulfide 1-9) [IP01-A3]
530 | CLLRMRSIC (disulfide 1-9) [IP01 (inhibitory peptide-01)]
> 1000 | CLLRMASIC (disulfide 1-9) [IP01-A6]
740 | CLLRMRAIC (disulfide 1-9) [IP01-A7]
210 | CLLRMRSAC (disulfide 1-9) [IP02]

Biological target: T1, Intercellular adhesion molecule-1 …
Assay: cell-based or functional assay
Details: not given
Remark: another data set of the same source

IC50, inhibition of JY cell aggregation, 360 minute incubation [µM] | fold smaller IC50 than IP01 (JY cell aggregation, 360 minutes) [fold] | fold improvement of activity over IP01 (JY cell aggregation) [fold] | fold improvement of inhibition over IP01 (JY cell aggregation IC50) [fold] | Molecule
> 1000 | – | – | – | CLVRMRSAC (disulfide 1-9) [IP02-V3]
90 | ~6 | – | – | CLLRMKSAC (disulfide 1-9) [IP02-K6]
> 1000 | – | – | – | CLLRMRSLC (disulfide 1-9) [IP02-L8]
~700 | – | – | – | CLIRMRSAC (disulfide 1-9) [IP02-I3]
580 | – | – | – | CLLRMRSIC (disulfide 1-9) [IP01 (inhibitory peptide-01)]
> 1000 | – | – | – | CVLRMRSAC (disulfide 1-9) [IP02-V2]
~700 | – | – | – | CLLRMRSVC (disulfide 1-9) [IP02-V8]
480 | – | 2 | 2.5 | CLLRMRSAC (disulfide 1-9) [IP02]

Each molecule was assayed against T2, LFA-1 binding to ICAM-1 (JY cells) (Homo sapiens, UniProt P05362) (assay: LFA-1:ICAM-1 dependent cell aggregation assay, slightly modified (360 minute incubations)). Details: cell aggregation.
T2 construct: endogenous in cells; host or cells: JY cells
T2 sequence (P05362 28-532): as the sequence (P05362 28-532 limits assumed) above
Type: cell-based
Experimental: (§1) JY cells were maintained in RPMI-1640 medium supplemented with 10% fetal bovine serum at 37° C. in an atmosphere containing 5% CO2 in air. The aggregation of JY cells, which is dependent on LFA-1 binding to ICAM-1, was determined as previously reported (Shannon, J. P., Silva, M. V., Brown, D. C. & Larson, R. S. (2001) Novel cyclic peptide inhibits intercellular adhesion molecule-1-mediated cell aggregation. J. Pept. Res. 58, 140-150; Larson, R. S., Brown, D. C. & Sklar, L. A.(1997) Retinoic acid induces aggregation of the acute promyelocytic leukemia cell lineNB-4 by utilization of LFA-1 and ICAM-2.Blood 90, 2747-2756; Rothlein, R. & Springer, T. A. (1986) The requirement for lymphocyte function associated antigen 1 in homotypic leukocyte adhesion stimulated by phorbol ester. J. Exp.Med. 163, 1132-1149). Briefly, JY cells were washed twice with serum-free media and resuspended at a concentration of 4×10^5 cells/mL. Cells were then preincubated with various concentrations of peptides or mAb for 15 minutes at room temperature. A 50 μL aliquot of cells was seeded in each well of a 96-well flat-bottomed microtiterplate followed by the addition of either peptide or mAb to a final volume of 100 μL. Cells were allowed to aggregate at 37° C. in humidified air containing 5% CO2. Within each well, the number of aggregates and the total number of free (single) cells were counted by inverted phase microscopy. Percent aggregation, P, was then determined as follows: P=100(1−Ff/Fi), where Ff (Fi) is the final (initial) number of free cells. Percent aggregation was then used to calculate percent inhibition, I, as follows: […], where Pi (Pc) is the percent aggregation with modulatory peptide (control). The constants for 50% inhibition (IC50) were derived from a linear fit to the percent inhibition at four concentrations (50 μm, 100 μm, 500 μm, and 1 mm) of inhibitory peptide. Each experiment was performed at least three times, with each condition performed in duplicate. The data are reported as the mean values and the SDs of each IC50.
The same general procedure was used as described in Example 1.
The functional activity of each IP02 derivative was measured in a slightly-modified version of the previously described cell aggregation assay (Shannon, J. P., Silva, M. V., Brown, D. C., & Larson, R. S. (2001). Novel cyclic peptide inhibits intercellular adhesion molecule-1-mediated cell aggregation. J. Pept. Res. 58, 140-150; Merchant, S. H., Gurule, D. M., Larson, R. S. (2003). Amelioration of ischemia-reperfusion injury with cyclic peptide blockade of ICAM-1. Am. J. Physiol. Heart Circ. 284,H1260-1268; Larson, R. S., Brown, D. C., and Sklar, L. A. (1997). Retinoic acid induces aggregation of the acute promyelocytic leukemia cell line NB-4 by utilization of LFA-1 and ICAM-2. Blood 90, 2747-2756; Rothlein, R. and Springer, T. A. (1986). The requirement for lymphocyte function-associated antigen 1 in homotypic leukocyte adhesion stimulated by phorbol ester. J. Exp. Med. 163, 1132-1149). Longer incubations (360 minutes) were used here instead of the earlier 120 minute incubations in order to increase the observed differences among peptide antagonists. Of all the amino acid substitutions, replacement of R6 with K, to produce IP02-K6, improved the IC50 the most. […] Alternatively, replacement of L2 or L3 with V (IP02-V2 and IP02-V3) or A8 with L (IP02-L8) abrogated activity, with IC50s exceeding 1,000 μM.

IC50 [µM] | Molecule
105 to 190 | CSCC[C@@H]1NC(=O)[C@H](CCCCN)NC(=O)[C@H](CC(C)C)NC(=O)[C@H](CC(C)C)NC(=O)[C@@H](N)CSSC[C@@H](C(=O)O)NC(=O)[C@H](C)NC(=O)[C@H](CO)NC(=O)[C@H](CCCNC(=N)N)NC1=O [IP02-K4, CLLKMRSAC] (H-CLLKMRSAC-OH; disulfide 1-9; N-terminus and C-terminus assumed)
> 1000 | CSCC[C@@H]1NC(=O)[C@H](CCCNC(=N)N)NC(=O)[C@H](CC(C)C)NC(=O)[C@H](C(C)C)NC(=O)[C@@H](N)CSSC[C@@H](C(=O)O)NC(=O)[C@H](C)NC(=O)[C@H](CO)NC(=O)[C@H](CCCNC(=N)N)NC1=O [IP02-V2] (H-CVLRMRSAC-OH; disulfide 1-9; N-terminus and C-terminus assumed)
> 1000 | CSCC[C@@H]1NC(=O)[C@H](CCCNC(=N)N)NC(=O)[C@H](C(C)C)NC(=O)[C@H](CC(C)C)NC(=O)[C@@H](N)CSSC[C@@H](C(=O)O)NC(=O)[C@H](C)NC(=O)[C@H](CO)NC(=O)[C@H](CCCNC(=N)N)NC1=O [IP02-V3] (H-CLVRMRSAC-OH; disulfide 1-9; N-terminus and C-terminus assumed)
105 to 190 | CC[C@H](C)[C@@H]1NC(=O)[C@@H](N)CSSC[C@@H](C(=O)O)NC(=O)[C@H](C)NC(=O)[C@H](CO)NC(=O)[C@H](CCCNC(=N)N)NC(=O)[C@H](CCSC)NC(=O)[C@H](CCCNC(=N)N)NC(=O)[C@H](CC(C)C)NC1=O [IP02-12, CILRMRSAC] (H-CILRMRSAC-OH; disulfide 1-9; N-terminus and C-terminus assumed)
> 1000 | CSCC[C@@H]1NC(=O)[C@H](CCCNC(=N)N)NC(=O)[C@H](CC(C)C)NC(=O)[C@H](CC(C)C)NC(=O)[C@@H](N)CSSC[C@@H](C(=O)O)NC(=O)[C@H](CC(C)C)NC(=O)[C@H](CO)NC(=O)[C@H](CCCNC(=N)N)NC1=O [IP02-L8, CLLRMRSLC] (H-CLLRMRSLC-OH; disulfide 1-9; N-terminus and C-terminus assumed)
700 | CSCC[C@@H]1NC(=O)[C@H](CCCNC(=N)N)NC(=O)[C@H](CC(C)C)NC(=O)[C@H](CC(C)C)NC(=O)[C@@H](N)CSSC[C@@H](C(=O)O)NC(=O)[C@H](C(C)C)NC(=O)[C@H](CO)NC(=O)[C@H](CCCNC(=N)N)NC1=O [IP02-V8] (H-CLLRMRSVC-OH; disulfide 1-9; N-terminus and C-terminus assumed)

Same assay, conditions: cell aggregation, unit μm [sic]

IC50 [µM] | Molecule
~700 | CC[C@H](C)[C@@H]1NC(=O)[C@H](CC(C)C)NC(=O)[C@@H](N)CSSC[C@@H](C(=O)O)NC(=O)[C@H](C)NC(=O)[C@H](CO)NC(=O)[C@H](CCCNC(=N)N)NC(=O)[C@H](CCSC)NC(=O)[C@H](CCCNC(=N)N)NC1=O [IP02-13, CLIRMRSAC] (H-CLIRMRSAC-OH; disulfide 1-9; N-terminus and C-terminus assumed)
~700 | CSCC[C@@H]1NC(=O)[C@H](CCCNC(=N)N)NC(=O)[C@H](CC(C)C)NC(=O)[C@H](CC(C)C)NC(=O)[C@@H](N)CSSC[C@@H](C(=O)O)NC(=O)[C@H](C(C)C)NC(=O)[C@H](CO)NC(=O)[C@H](CCCNC(=N)N)NC1=O [IP02-V8] (H-CLLRMRSVC-OH; disulfide 1-9; N-terminus and C-terminus assumed)

Each molecule was assayed against T2, LFA-1 binding to ICAM-1 (JY cells) (assay: LFA-1:ICAM-1 dependent JY cell aggregation assay (2 hours)). Details: not given.
Type: cell-based
Experimental: Cysteine-constrained peptides, synthesized by Biopeptide (San Diego, Calif., USA), were isolated using high-performance liquid chromatography, and their correct mass was confirmed by mass spectrometry. The peptides were dissolved in 5% dimethylsulfoxide in phosphate-buffered saline (PBS) at concentrations of 10 mm and stored at −80° C. until use. The mAb directed against LFA-1 (TS1/18) was purified from a hybridoma line ([…], Manassas, Va.) as described previously (Oj, V. T. & Herzenberg, T. (1980) Immunoglobulin-producing hybrid celllines. In Selected Methods in Cellular Immunology (Mishell, B. B. & Shiigi, S. M.,eds), H. H. Freeman, New York; Larson, R. S., Brown, D. C. & Sklar, L. A.(1997) Retinoic acid induces aggregation of the acute promyelocytic leukemia cell lineNB-4 by utilization of LFA-1 and ICAM-2.Blood 90, 2747-2756; Rothlein, R. & Springer, T. A. (1986) The requirement for lymphocyte function associated antigen 1 in homotypic leukocyte adhesion stimulated by phorbol ester. J. Exp.Med. 163, 1132-1149).
as §1

IC50 [µM] | Molecule
> 1000 | CC[C@H](C)[C@@H]1NC(=O)[C@H](CO)NC(=O)[C@H](CCCNC(=N)N)NC(=O)[C@H](CCSC)NC(=O)[C@H](CCCNC(=N)N)NC(=O)[C@H](C)NC(=O)[C@H](CC(C)C)NC(=O)[C@@H](N)CSSC[C@@H](C(=O)O)NC1=O [IP01-A3, CLARMRSIC] (H-CLARMRSIC-OH; disulfide 1-9; N-terminus and C-terminus assumed)
> 1000 | CC[C@H](C)[C@@H]1NC(=O)[C@H](CO)NC(=O)[C@H](CCCNC(=N)N)NC(=O)[C@H](CCSC)NC(=O)[C@H](CCCNC(=N)N)NC(=O)[C@H](CC(C)C)NC(=O)[C@H](C)NC(=O)[C@@H](N)CSSC[C@@H](C(=O)O)NC1=O [IP01-A2, CALRMRSIC] (H-CALRMRSIC-OH; disulfide 1-9; N-terminus and C-terminus assumed)

Same assay, conditions: listed as S7 to alanine substitution

bioactivity after alanine substitution (in words) | Molecule
retained significant bioactivity | CC[C@H](C)[C@@H]1NC(=O)[C@H](C)NC(=O)[C@H](CCCNC(=N)N)NC(=O)[C@H](CCSC)NC(=O)[C@H](CCCNC(=N)N)NC(=O)[C@H](CC(C)C)NC(=O)[C@H](CC(C)C)NC(=O)[C@@H](N)CSSC[C@@H](C(=O)O)NC1=O [IP01-A7, CLLRMRAIC] (H-CLLRMRAIC-OH; disulfide 1-9; N-terminus and C-terminus assumed)
